Measurements reported in patent publication US20140249468A1 (UNITED STATES OF AMERICA AS REPRESENTED BY THE SECRETARY …, published 2014).
Square brackets hold non-standard residues; d marks the D form. Ends that are not written are not given here.

T1: APMA-activated recombinant human MMP-2 (human, UniProt P08253 110-660, limits assumed)
T1 sequence (looked up): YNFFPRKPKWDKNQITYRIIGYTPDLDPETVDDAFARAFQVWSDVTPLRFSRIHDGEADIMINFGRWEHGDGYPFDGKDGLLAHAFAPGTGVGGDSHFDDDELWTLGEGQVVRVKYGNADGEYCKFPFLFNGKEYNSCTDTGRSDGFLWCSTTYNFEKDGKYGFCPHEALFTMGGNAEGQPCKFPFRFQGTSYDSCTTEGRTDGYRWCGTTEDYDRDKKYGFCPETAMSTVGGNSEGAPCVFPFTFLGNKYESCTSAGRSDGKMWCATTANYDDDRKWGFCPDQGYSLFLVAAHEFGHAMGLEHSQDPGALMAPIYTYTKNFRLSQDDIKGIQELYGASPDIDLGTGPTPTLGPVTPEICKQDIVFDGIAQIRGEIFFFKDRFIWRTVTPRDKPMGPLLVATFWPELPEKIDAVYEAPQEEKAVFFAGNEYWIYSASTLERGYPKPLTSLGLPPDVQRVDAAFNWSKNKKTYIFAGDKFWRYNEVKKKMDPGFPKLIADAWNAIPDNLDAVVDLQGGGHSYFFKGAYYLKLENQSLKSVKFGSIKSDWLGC

B1: compound 4 (MMP-P-RGD) (peptide)
peptide 1: {Cy5.5}-GPLGVRGK(BHQ‑3)GG
peptide 2: RGDYK
modifications: not fully specified (some residues); also: chain 1 C-terminal carboxyl conjugated to chain 2, c(RGDyK), linkage site not given here, head-to-tail to a chain's N/C-terminus
B2: compound 7 (peptide)
peptide: cyclo(RGD[dY]K(CW800))
notes: Made by conjugating CW800 NHS ester to c(RGDyK); also called CW800-labelled c(RGDyK)

What was measured:
[1] = target: T1, APMA-activated recombinant human MMP-2; assay: cell-based or functional assay
[2] = target: T2, ανβ3 integrin receptor on U87MG human glioma cells (human, UniProt P06756 31-1048; P05106 27-788); assay: competitive cell-binding assay on U87MG cells, displacement of 125I-echistatin
T2 construct: whole, on cells; Endogenous receptor on U87MG cells; also called ανβ3 receptor
T2 sequence (P06756 31-1048, chain 1 of 2): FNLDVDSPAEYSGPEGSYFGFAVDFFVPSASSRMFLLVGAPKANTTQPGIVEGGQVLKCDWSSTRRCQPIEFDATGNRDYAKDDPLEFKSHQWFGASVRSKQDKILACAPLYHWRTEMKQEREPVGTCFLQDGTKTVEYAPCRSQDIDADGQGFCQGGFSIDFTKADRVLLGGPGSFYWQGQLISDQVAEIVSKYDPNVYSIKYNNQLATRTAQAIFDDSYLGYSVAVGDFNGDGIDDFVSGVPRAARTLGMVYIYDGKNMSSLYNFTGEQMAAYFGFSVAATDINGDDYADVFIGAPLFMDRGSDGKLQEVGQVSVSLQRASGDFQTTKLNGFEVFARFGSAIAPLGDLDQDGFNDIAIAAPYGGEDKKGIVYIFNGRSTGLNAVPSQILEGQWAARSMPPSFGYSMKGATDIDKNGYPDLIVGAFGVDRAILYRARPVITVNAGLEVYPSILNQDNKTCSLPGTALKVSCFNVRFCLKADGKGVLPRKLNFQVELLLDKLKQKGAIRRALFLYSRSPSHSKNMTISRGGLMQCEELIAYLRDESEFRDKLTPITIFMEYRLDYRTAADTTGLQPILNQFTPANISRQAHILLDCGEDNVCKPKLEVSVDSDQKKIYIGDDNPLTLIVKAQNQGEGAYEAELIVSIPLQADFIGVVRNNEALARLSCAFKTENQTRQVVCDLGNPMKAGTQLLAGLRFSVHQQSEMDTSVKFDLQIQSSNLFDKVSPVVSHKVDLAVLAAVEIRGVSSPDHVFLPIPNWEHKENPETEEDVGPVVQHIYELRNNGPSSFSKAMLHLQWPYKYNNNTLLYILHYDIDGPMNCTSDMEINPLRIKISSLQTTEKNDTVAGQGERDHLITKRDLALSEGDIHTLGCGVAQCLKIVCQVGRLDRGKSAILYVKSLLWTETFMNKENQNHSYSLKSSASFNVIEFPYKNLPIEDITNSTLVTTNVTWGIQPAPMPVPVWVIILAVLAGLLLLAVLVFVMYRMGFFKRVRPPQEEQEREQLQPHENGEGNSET
T2 sequence (P05106 27-788, chain 2 of 2): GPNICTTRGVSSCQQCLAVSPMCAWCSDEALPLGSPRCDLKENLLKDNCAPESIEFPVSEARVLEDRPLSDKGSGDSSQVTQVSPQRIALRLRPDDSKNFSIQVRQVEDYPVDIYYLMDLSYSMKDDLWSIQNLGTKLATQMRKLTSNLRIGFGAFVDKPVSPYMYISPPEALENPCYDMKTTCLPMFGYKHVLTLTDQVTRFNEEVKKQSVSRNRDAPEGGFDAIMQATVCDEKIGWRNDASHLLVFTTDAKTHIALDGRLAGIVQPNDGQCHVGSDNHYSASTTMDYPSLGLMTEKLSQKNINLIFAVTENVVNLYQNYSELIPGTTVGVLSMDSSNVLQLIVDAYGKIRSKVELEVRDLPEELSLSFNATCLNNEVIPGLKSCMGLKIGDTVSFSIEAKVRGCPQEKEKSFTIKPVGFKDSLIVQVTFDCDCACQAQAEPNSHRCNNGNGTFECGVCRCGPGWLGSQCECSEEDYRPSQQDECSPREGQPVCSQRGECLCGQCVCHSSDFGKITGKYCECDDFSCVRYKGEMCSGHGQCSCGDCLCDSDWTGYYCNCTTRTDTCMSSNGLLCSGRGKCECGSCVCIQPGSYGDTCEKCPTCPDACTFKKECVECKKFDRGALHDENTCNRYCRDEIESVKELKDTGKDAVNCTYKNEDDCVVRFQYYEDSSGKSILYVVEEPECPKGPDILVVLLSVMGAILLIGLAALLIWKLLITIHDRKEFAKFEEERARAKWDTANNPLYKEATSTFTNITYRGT
Experimental: Briefly, the U87MG cell line was cultured in DMEM medium containing 10% (v/v) fetal bovine serum supplemented with penicillin (100 μg/ml), streptomycin (100 μg/ml), non-essential amino acids (100 mM) and sodium pyruvate (1 mM) at 37° C. with 5% CO₂. […] After incubation, the plate was washed three times with PBS containing 0.1% BSA, and the radioactivity was measured by γ-counting. The IC₅₀ values were calculated by nonlinear regression analysis.

recovery of the NIR fluorescence signal [1] [fold] | IC50 [2] [nM] | Binder
> 20 |  | B1
 | 456 | B2
